From US20240294570A1 (BRANDEIS UNIVERSITY, published 2024)
Non-standard residues stand in square brackets, D forms with d. No end group written: not given here. *: point of attachment. pY = N[C@@H](Cc1ccc(OP(=O)(O)O)cc1)C(=O)O; NBD = O=[N+]([O-])c1ccc(*)c2nonc12; βAla = NCCC(=O)O

Biological target: Alkaline phosphatase (Biomatik, Cat. No. A1130)
Experiment: cell-based or functional assay

B1: phosphopentapeptide 7, NBD-βA-LLpYLL (peptide)
peptide: {NBD}-[βAla]LL[pY]LL
For B1, the “half-life of 7 at 100 µM with 0.5 U/mL ALP” value was 127 min, the “half-life of 7 at 200 µM with 0.5 U/mL ALP” value was 112 min and the “half-life of 7 at 400 µM with 0.5 U/mL ALP” value was 126 min.

B2: phosphopentapeptide 9, NBD-βA-llllpY (peptide)
peptide: {NBD-βAla}-[dL][dL][dL][dL][pY]
With B2 the “half-life of 9 at 100 µM with 0.5 U/mL ALP” value was 24.6 min, the “half-life of 9 at 200 µM with 0.5 U/mL ALP” value was 21.6 min and the “half-life of 9 at 400 µM with 0.5 U/mL ALP” value was 27 min.

B3: L-phosphopentapeptide 5, NBD-βA-LLLLpY (peptide)
peptide: {NBD}-[βAla]LLLL[pY]
In the case of B3, the “half-life of 5 (400 µM) with 0.1 U/mL ALP” value is reported as 122 min, the “half-life of 5 at 100 µM with 0.5 U/mL ALP (LC-MS)” value is reported as 27.3 min and the “half-life of 5 at 200 µM with 0.5 U/mL ALP (LC-MS)” value is reported as 21.6 min. For the same binder, the “half-life of 5 at 400 µM with 0.5 U/mL ALP (LC-MS)” value was 30.6 min.
